In patent publication US20120041175A1 (ROCKEFELLER UNIVERISTY, published 2012):

How the values were obtained:
[1] = molecular target: T1, Rubicon-EGFP (full-length mouse Rubicon tagged with EGFP at the C-terminus) (mouse, UniProt Q80U62 1-956); experiment: co-IP with anti-GFP antibody from co-transfected HEK 293T cells, anti-FLAG blot
T1 construct: also called EGFP-tagged Rubicon; GFP-tagged full-length Rubicon; not shown: EGFP tag at the C-terminus (pEGFP-N3 vector)
T1 sequence: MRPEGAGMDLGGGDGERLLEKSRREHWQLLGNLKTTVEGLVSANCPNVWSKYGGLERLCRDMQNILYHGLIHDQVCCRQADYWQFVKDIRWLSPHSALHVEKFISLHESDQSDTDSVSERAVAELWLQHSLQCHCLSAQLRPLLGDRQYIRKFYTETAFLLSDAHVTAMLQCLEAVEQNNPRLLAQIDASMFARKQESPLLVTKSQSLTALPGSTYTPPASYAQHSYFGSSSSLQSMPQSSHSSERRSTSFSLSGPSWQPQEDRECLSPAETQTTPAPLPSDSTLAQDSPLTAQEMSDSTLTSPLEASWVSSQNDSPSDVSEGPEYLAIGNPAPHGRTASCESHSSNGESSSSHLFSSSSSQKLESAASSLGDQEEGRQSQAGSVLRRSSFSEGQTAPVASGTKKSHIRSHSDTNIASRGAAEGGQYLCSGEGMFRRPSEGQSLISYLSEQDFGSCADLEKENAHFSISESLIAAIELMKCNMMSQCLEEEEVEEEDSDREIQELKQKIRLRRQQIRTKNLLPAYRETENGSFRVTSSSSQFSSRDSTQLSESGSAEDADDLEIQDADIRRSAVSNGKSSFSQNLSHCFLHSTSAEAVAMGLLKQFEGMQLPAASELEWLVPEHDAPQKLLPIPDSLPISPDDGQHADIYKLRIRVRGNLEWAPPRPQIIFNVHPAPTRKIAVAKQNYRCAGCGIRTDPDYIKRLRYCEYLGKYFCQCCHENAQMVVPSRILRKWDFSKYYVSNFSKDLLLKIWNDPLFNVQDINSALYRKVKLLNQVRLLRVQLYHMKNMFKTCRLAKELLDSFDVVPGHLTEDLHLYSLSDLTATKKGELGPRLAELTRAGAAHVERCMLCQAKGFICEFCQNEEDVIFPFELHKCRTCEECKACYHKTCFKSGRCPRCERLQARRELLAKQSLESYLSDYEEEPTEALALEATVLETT
From the text: (§1) FIG. 2A-E. Mapping of the binding domains that mediate the interaction between Beclin 1 and ATG14L/Rubicon. (A) Schematic representations of Beclin 1, ATG14L and Rubicon domain structures and the construction of multiple deletion mutants. The Beclin 1 mutants were tagged with FLAG at N-termini. The ATG14L or Rubicon mutants were tagged with EGFP at C-termini. (B) and (C) Domain mapping in Beclin 1 sequence required for binding ATG14L or Rubicon. HEK 293T cells were co-transfected with FLAG-tagged Beclin 1 mutant constructs and GFP-tagged full-length ATG14L […]. The immunoprecipitation was performed with anti-GFP antibody, followed by Western blotting with anti-FLAG antibody.
(§2) DNA plasmids were transfected into HEK 293T cells for immunoprecipitation. For Co-immunoprecipitation experiments, two or three plasmids were transfected simultaneously in equal amount. Cells were lysed in immunoprecipitation lysis buffer (20 mM HEPES, pH7.4/1 mM MgCl2/0.25 mM CaCl2/0.2% Triton X-100/150 mM NaCl/protease inhibitor and PMSF-pepstatin/DNaseI). For immunoprecipitation with GFP, ATG14L or Rubicon antibody, Dynabeads M-270 E-proxy (Invitrogen, Carlsbad, Calif.) were conjugated with each antibody, and incubated with cell lysate at 4° C. for 2 hours. After the beads were washed in ATG14L or Rubicon lysis buffer for 5 times, proteins were eluted by incubating beads in elution buffer (0.5 mM EDTA, pH8/0.5N NH₃.H₂O) at room temperature for 20 minutes and dried with vacuum speed centrifuge. For FLAG-tagged protein IP, Anti-FLAG M2 affinity resin (Sigma, St Louis, Mo.) was used and the manufacture's protocol was followed.

[2] = molecular target: T2, ATG14L-EGFP (full-length mouse ATG14L tagged with EGFP at the C-terminus) (mouse, UniProt Q8CDJ3 1-492); experiment: as above
T2 construct: Mouse cDNA cloned into pEGFP-N3 and expressed in HEK 293/293T or HeLa cells; also called EGFP-tagged ATG14L; GFP-tagged full-length ATG14L; not shown: EGFP tag at the C-terminus (pEGFP-N3 vector)
From the text: as §1, §2

[3] = molecular target: Myc-Vps34/PtdIns3K (Myc-tagged hVps34) (human, UniProt Q8NEB9 1-887); experiment: cell-based or functional assay
[4] = molecular target: T2, ATG14L-EGFP (full-length mouse ATG14L …); experiment: co-IP with anti-GFP antibody from co-transfected HEK 293T cells; anti-FLAG blot
From the text: as §1
DNA plasmids were transfected into HEK 293T cells for immunoprecipitation. For Co-immunoprecipitation experiments, two or three plasmids were transfected simultaneously in equal amount. Cells were lysed in immunoprecipitation lysis buffer (20 mM HEPES, pH7.4/1 mM MgCl2/0.25 mM CaCl2/0.2% Triton X-100/150 mM NaCl/protease inhibitor and PMSF-pepstatin/DNaseI). For immunoprecipitation with GFP, ATG14L or Rubicon antibody, Dynabeads M-270 E-proxy (Invitrogen, Carlsbad, Calif.) were conjugated with each antibody, and incubated with cell lysate at 4° C. for 2 hours. […]

[5] = molecular target: T1, Rubicon-EGFP (full-length mouse Rubicon …); experiment: co-IP with anti-GFP antibody from co-transfected HEK 293T cells (FIG. 11)
[6] = molecular target: T2, ATG14L-EGFP (full-length mouse ATG14L …); experiment: as above
[7] = molecular target: T3, ATG14L (endogenous, mouse tissue or NIH 3T3 cells) (mouse, UniProt Q8CDJ3 1-492); experiment: co-IP of endogenous proteins with anti-ATG14L antibody from NIH 3T3 cell lysates, Western blot
T3 construct: also called BISC

Sequence of Myc-Vps34/PtdIns3K (Myc-tagged hVps34) (Q8NEB9 whole entry): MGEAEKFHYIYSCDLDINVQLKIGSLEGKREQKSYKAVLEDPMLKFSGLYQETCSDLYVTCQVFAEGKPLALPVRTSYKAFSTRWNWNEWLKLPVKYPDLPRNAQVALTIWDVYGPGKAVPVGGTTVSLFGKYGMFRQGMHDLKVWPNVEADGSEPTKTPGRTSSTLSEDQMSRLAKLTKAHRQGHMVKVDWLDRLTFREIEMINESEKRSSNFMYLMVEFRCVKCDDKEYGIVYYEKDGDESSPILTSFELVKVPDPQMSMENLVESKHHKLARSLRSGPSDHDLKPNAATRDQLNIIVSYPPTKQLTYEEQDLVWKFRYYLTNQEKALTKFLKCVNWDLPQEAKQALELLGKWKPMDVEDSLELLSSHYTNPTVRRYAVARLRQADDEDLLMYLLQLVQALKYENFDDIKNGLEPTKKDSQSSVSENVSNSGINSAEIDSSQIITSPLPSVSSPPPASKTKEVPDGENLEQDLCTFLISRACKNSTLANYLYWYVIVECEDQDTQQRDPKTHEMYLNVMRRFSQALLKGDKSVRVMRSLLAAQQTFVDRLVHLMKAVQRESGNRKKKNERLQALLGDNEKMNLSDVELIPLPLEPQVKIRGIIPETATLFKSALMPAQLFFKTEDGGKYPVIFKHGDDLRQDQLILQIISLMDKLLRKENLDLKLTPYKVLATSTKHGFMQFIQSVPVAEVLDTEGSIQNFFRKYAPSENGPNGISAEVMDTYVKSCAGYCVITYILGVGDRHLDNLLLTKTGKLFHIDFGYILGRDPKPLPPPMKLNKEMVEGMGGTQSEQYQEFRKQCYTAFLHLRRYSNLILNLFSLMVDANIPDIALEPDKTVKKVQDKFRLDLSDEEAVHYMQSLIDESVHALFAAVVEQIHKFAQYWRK

B1: FLAG-Beclin 1 ECD domain (aa 244-448) (other)
chain: ELKSVENQVRYAQIQLDKLKKTNVFNATFHIWHSGQFGTINNFRLGRLPSVPVEWNEINAAWGQTVLLLHALANKMGLKFQRYRLVPYGNHSYLESLTDKSKELPLYCSGGLRFFWDNKFDHAMVAFLDCVQQFKEEVEKGETRFCLPYRMDVEKGKIEDTGGSGGSYSIKTQFNSEEQWTKALKFMLTNLKWGLAWVSSQFYNK
notes: also called E (Evolutionarily conserved domain); FLAG-E; not shown: FLAG tag at the N-terminus (pCMV-FLAG2 vector)
binding result [1]: no binding | binding result [2]: no binding

B2: FLAG-ATG14L (mouse ATG14L tagged with FLAG at the N-terminus) (other, not shown: small tags and cut ends)
chain: MASPSGKGSWTPEAPGFGPRALARDLVDSVDDAEGLYVAVERCPLCNTTRRRLTCAKCVQSGDFVYFDGRDRERFIDKKERLSQLKNKQEEFQKEVLKAMEGKRLTDQLRWKIMSCKMRIEQLKQTICKGNEEMKKNSEGLLKNKEKNQKLYSRAQRHQEKKEKIQRHNRKLGDLVEKKTIDLKSHYERLARLRRSHILELTSIIFPIDEVKTSGRDPADVSSETDSAMTSSMVSKLAEARRTTYLSGRWVCDDHNGDTSISITGPWISLPNNGDYSAYYNWVEEKKTTQGPDMEHNNPAYTISAALGYATQLVNIVSHILDINLPKKLCNSEFCGENLSKQKLTRAVRKLNANILYLCSSQHVNLDQLQPLHTLRNLMHLVSPRSEHLGRSGPFEVRADLEESMEFVDPGVAGESDASGDERVSDEETDLGTDWENLPSPRFCDIPSQPVEVSQSQSTQVSPPIASSSAGGMISSAAASVTSWFKAYTGHR
Vps34 kinase activity (radioactive PtdIns(3)P normalized against immunoprecipitated Myc-tagged Vps34), over-expressed ATG14L against empty vector, in the presence of Beclin 1 [3]: 2.5 ratio

B3: FLAG-Beclin 1 BC (Bcl2-binding domain and Coiled-coil domain) (other)
chain: MEGSKASSSTMQVSFVCQRCSQPLKLDTSFKILDRVTIQELTAPLLTTAQAKPGETQEEEANSGEEPFIETRQDGVSRRFIPPARMMSTESANSFTLIGEASDGGTMENLSRRLKVTGDLFDIMSGQTDVDHPLCEECTDTLLDQLDTQLNVTENECQNYKRCLEILEQMNEDDSEQLQRELKELALEEERLIQELEDVEKNRKVVAENLEKVQAEAERLDQEEAQYQREYSEFKRQQLELDDELKSVENQVRYAQIQLDKLKKTNVFN
notes: also called FLAG-BC; not shown: FLAG tag at the N-terminus (pCMV-FLAG2 vector)
binding result [1]: no binding

B4: FLAG-Beclin 1 CCD domain (aa 144-269) (other)
chain: DQLDTQLNVTENECQNYKRCLEILEQMNEDDSEQLQRELKELALEEERLIQELEDVEKNRKVVAENLEKVQAEAERLDQEEAQYQREYSEFKRQQLELDDELKSVENQVRYAQIQLDKLKKTNVFN
notes: aa 144-269 is printed for the CCD domain of Beclin 1; also called C (Coiled-coil domain); FLAG-C; not shown: FLAG tag at the N-terminus (pCMV-FLAG2 vector)
binding result [4]: binds | binding result [1]: no binding

B5: Beclin 1-AsRed (other)
chain: MEGSKASSSTMQVSFVCQRCSQPLKLDTSFKILDRVTIQELTAPLLTTAQAKPGETQEEEANSGEEPFIETRQDGVSRRFIPPARMMSTESANSFTLIGEASDGGTMENLSRRLKVTGDLFDIMSGQTDVDHPLCEECTDTLLDQLDTQLNVTENECQNYKRCLEILEQMNEDDSEQLQRELKELALEEERLIQELEDVEKNRKVVAENLEKVQAEAERLDQEEAQYQREYSEFKRQQLELDDELKSVENQVRYAQIQLDKLKKTNVFNATFHIWHSGQFGTINNFRLGRLPSVPVEWNEINAAWGQTVLLLHALANKMGLKFQRYRLVPYGNHSYLESLTDKSKELPLYCSGGLRFFWDNKFDHAMVAFLDCVQQFKEEVEKGETRFCLPYRMDVEKGKIEDTGGSGGSYSIKTQFNSEEQWTKALKFMLTNLKWGLAWVSSQFYNK
notes: Beclin 1 cDNA from mouse brain cloned into pAs-Red; not shown: AsRed fluorescent protein tag (pAs-Red vector)
binding result [5]: binds | binding result [6]: binds

B6: endogenous Beclin 1 of NIH 3T3 cells / mouse tissue (other)
chain: MEGSKASSSTMQVSFVCQRCSQPLKLDTSFKILDRVTIQELTAPLLTTAQAKPGETQEEEANSGEEPFIETRQDGVSRRFIPPARMMSTESANSFTLIGEASDGGTMENLSRRLKVTGDLFDIMSGQTDVDHPLCEECTDTLLDQLDTQLNVTENECQNYKRCLEILEQMNEDDSEQLQRELKELALEEERLIQELEDVEKNRKVVAENLEKVQAEAERLDQEEAQYQREYSEFKRQQLELDDELKSVENQVRYAQIQLDKLKKTNVFNATFHIWHSGQFGTINNFRLGRLPSVPVEWNEINAAWGQTVLLLHALANKMGLKFQRYRLVPYGNHSYLESLTDKSKELPLYCSGGLRFFWDNKFDHAMVAFLDCVQQFKEEVEKGETRFCLPYRMDVEKGKIEDTGGSGGSYSIKTQFNSEEQWTKALKFMLTNLKWGLAWVSSQFYNK
notes: NIH 3T3 is a mouse cell line (inference)
binding result [7]: binds

B7: FLAG-Rubicon (mouse Rubicon tagged with FLAG at the N-terminus) (other, not shown: small tags and cut ends)
chain: MRPEGAGMDLGGGDGERLLEKSRREHWQLLGNLKTTVEGLVSANCPNVWSKYGGLERLCRDMQNILYHGLIHDQVCCRQADYWQFVKDIRWLSPHSALHVEKFISLHESDQSDTDSVSERAVAELWLQHSLQCHCLSAQLRPLLGDRQYIRKFYTETAFLLSDAHVTAMLQCLEAVEQNNPRLLAQIDASMFARKQESPLLVTKSQSLTALPGSTYTPPASYAQHSYFGSSSSLQSMPQSSHSSERRSTSFSLSGPSWQPQEDRECLSPAETQTTPAPLPSDSTLAQDSPLTAQEMSDSTLTSPLEASWVSSQNDSPSDVSEGPEYLAIGNPAPHGRTASCESHSSNGESSSSHLFSSSSSQKLESAASSLGDQEEGRQSQAGSVLRRSSFSEGQTAPVASGTKKSHIRSHSDTNIASRGAAEGGQYLCSGEGMFRRPSEGQSLISYLSEQDFGSCADLEKENAHFSISESLIAAIELMKCNMMSQCLEEEEVEEEDSDREIQELKQKIRLRRQQIRTKNLLPAYRETENGSFRVTSSSSQFSSRDSTQLSESGSAEDADDLEIQDADIRRSAVSNGKSSFSQNLSHCFLHSTSAEAVAMGLLKQFEGMQLPAASELEWLVPEHDAPQKLLPIPDSLPISPDDGQHADIYKLRIRVRGNLEWAPPRPQIIFNVHPAPTRKIAVAKQNYRCAGCGIRTDPDYIKRLRYCEYLGKYFCQCCHENAQMVVPSRILRKWDFSKYYVSNFSKDLLLKIWNDPLFNVQDINSALYRKVKLLNQVRLLRVQLYHMKNMFKTCRLAKELLDSFDVVPGHLTEDLHLYSLSDLTATKKGELGPRLAELTRAGAAHVERCMLCQAKGFICEFCQNEEDVIFPFELHKCRTCEECKACYHKTCFKSGRCPRCERLQARRELLAKQSLESYLSDYEEEPTEALALEATVLETT
Vps34 kinase activity (radioactive PtdIns(3)P normalized against immunoprecipitated Myc-tagged Vps34), over-expressed Rubicon against empty vector, in the absence of Beclin 1 [3]: 0.58 ratio

B8: FLAG-Beclin 1 BD domain (aa 1-150) (other)
chain: MEGSKASSSTMQVSFVCQRCSQPLKLDTSFKILDRVTIQELTAPLLTTAQAKPGETQEEEANSGEEPFIETRQDGVSRRFIPPARMMSTESANSFTLIGEASDGGTMENLSRRLKVTGDLFDIMSGQTDVDHPLCEECTDTLLDQLDTQL
notes: not shown: FLAG tag at the N-terminus (pCMV-FLAG2 vector)
binding result [1]: no binding | binding result [2]: no binding
